What was measured:
[1] = test system: patients with relapsed or refractory multiple myeloma; assay: POLLUX (NCT02076009) phase 3 trial, safety (adverse events); assay type: in vivo, human
Text: The purpose of this study was to assess the effects of administration of daratumumab when combined with lenalinomide and dexamethasone compared with lenalinomide and dexamethasone alone, for participants with relapsed or refractory multiple myeloma. The study was a multicenter, randomized open-label active-controlled phase 3 trial. A prespecified interim analysis has been described in Dimopoulos et al., NEJM375: 1319-31, 2016. The clinical trial number for this study is NCT02076009. […] For the DRd, the dose of dexamethasone was split: dexamethasone was administered at a dose of 20 mg before infusion as prophylaxis for infusion-related reactions and 20 mg was administered the next day.

[2] = test system: patients with relapsed or refractory multiple myeloma; assay: CASTOR (NCT02136134) phase 3 trial, safety (adverse events); assay type: in vivo, human
Text: The purpose of this study is to assess the effects of administration of daratumumab when combined with VELCADE® (bortezomib) and dexamethasone compared with VELCADE® (bortezomib) and dexamethasone alone, for participants with relapsed or refractory multiple myeloma. The study was a multicenter, randomized open-label active-controlled phase 3 trial. A prespecified interim analysis has been described in Palumpo et al., NEJM375:754-66, 2016. The clinical trial number for this study is NCT02136134. Daratumumab was administered as an IV infusion at a dose of 16 mg/kg once per week (days 1, 8, and 15) for cycles 1-3, once every 3 weeks (on Day 1) during cycles 4-8, and once every 4 weeks thereafter. […] Dexamethasone was administered orally at 20 mg on Days 1, 2, 4, 5, 8, 9, 11, and 12, for a total dose of 160 mg per cycle. Safety assessments included the evaluation of adverse events, clinical laboratory testing, vital signs, and electrocardiography. The adverse events were graded according to the National Cancer Institute Common Terminology Criteria for Adverse Events, version 4.03.

daratumumab
Infusion-related reactions occurring during the first infusion ([1]; % of the reactions): 92%
Incidence of daratumumab infusion-related reactions of any grade ([1]; DRd arm): 47.7%
Infusion-related event of grade 4 or 5 ([1]; in vivo): no patient
Infusion-related reaction: cough ([1]; in vivo): 8.5%
Infusion-related reaction: dyspnea ([1]; in vivo): 8.5%
Infusion-related reaction: vomiting ([1]; in vivo): 5.7%
Patients who discontinued daratumumab because of a grade 3 infusion-related event ([1]; in vivo): One
Patients with infusion-related reactions whose events occurred during the first infusion ([2]; % of patients with infusion-related reactions): 98.2%
Infusion-related reactions of any grade ([2]; associated with daratumumab, DVd arm): 45.3%
Grade 4 infusion-related events ([2]; in vivo): no grade 4 events
Infusion-related reaction: bronchospasm ([2]; in vivo): 9.1%
Infusion-related reaction: cough ([2]; in vivo): 7.0%
Infusion-related reaction: dyspnea ([2]; in vivo): 10.7%
Patients who discontinued treatment because of infusion-related reactions ([2]; in vivo): Two

— patent US20230340145A1, “Methods of Treating High Risk Multiple Myeloma” (Janssen Biotech, Inc., priority 2017, published 2023)
